Our source for the protein production values is a protein production outcome set (Wang et al. 2014).

This data set in a line: label from the status in PepcDB records.
In the case of “MPAPRFAQASEVPGLAARRIAADILDGVLQKRRMLDDQLEGPAAHPGLKTLSDRDRALMRRLVATILRRLGTLEGLLAKLLDRGVPTDAPRAKSALLIGAAQILWMDVPDHAAVDLSVRLVQSDRRAAKYAGLVNAVLRRCAREGQPLVEELAAGTPDVPQWLLARWSEHYGAETTRAIAHAISHEPSLDLTVKSDPAHWAARLHGEVLPTGTVRTLLQGSVRMLPGFDEGQWWVQDAAAALPARLFGDIAGKSVADLCAAPGGKTAQLAAAGARVTAIDRSPARVARLRENLARLSLKVETGVADAAEWRGDATAEFDAVLIDAPCASTGTIRRHPDVAWLKQESDIGALAAVQNRLLKKAASLLRPGGTLVYCTCSLEPEEGEQAIAALLDAESSMRRQPIDPAEVAGLAEIVTTDGALRTLPCHLPHSDPRLAGLDGFYAARLVKSL”, the protein production entry is on record as “failed”. The entry for “MTALAVTLKNWFFTRNSMILNANILLFIILFNTLPFEPQVVTGISILVFVAILWLTEAIHVSITALLIPMLAVFLGVFNTQAALNNFSNSIIFLFLGGFALAAALHKQKLDQALADKVLLIARGRMSVAVFMLFGVSAGLSMWISNTATAAMMLPLVLGVMTKLDAKKNHNTFLFVLLGIAYSASIGGIATLVGSPPNAIAAAEVGLNFTEWMKLGLPISLILMPIAILVLYTMTKPDLSHKFELDHKPVEWTNGKMVTLAIFLLTVTLWIFSKPINTMLGGFAKFDTLVAIGAILLLGASRAVEWKDIEKTTDWGVLILFGGGICLSNVLKATGTSVFLAHSLTGFLEQAGVLLTILSVVAFVVFLTEFASNTASAALLVPVFATIAEALGLSPVILSALIAVAASCAFMLPVATPPNAIVFGTGHIKQKEMMRIGFVLNIACIGALTLFAWLFW” is “failed”.

Turning to “MGHHHHHHSHMGTKRPAMLDNEADGNKTMIELSDNENPWTIFLETVDPELAASGATLPKFDKDHDVMLFLKMYDPKTR”, the protein production entry is reported as “failed”. The entry for “MLRNKAFVVRLYPNAAQAERINRTLGCARFVYNHFLARRIESYRQDGKGMIYAATDKALTLLKREEGTAWLAEVDKFALQQSLRDLERAYQNFFRTAKKSGKKVGFPKFKKKRTGEAYRTQFTNNNIEIGEGKLKLPKLGWVKTRGQRDMQGKILNVTVRRIHEGHYEASVLCEVEIPYLPAAPKFAAGVDVGIKDFAIVTDGKGEFEHHANPKYYRSSLRRLRKAQKTLSRRKKGSARYGRAKTTLARIHKRVANKRQDFIHKLTTSLVREYEITCTEHLKPDNMRKNRRLALSVSDAGWGEFIRQLEYKATWYGRLVSKISPYFPSSQICHDCGFKNPAVKNLAVREWTCPNCGETHDRDENAALNIRREGLVAAGMSDTQNAHGDCIRPTSVGSGLRSENHATSVVLEHHHHHH” is “not failed”; for “MSLHPVSISLSSYGADLVRSRGQASFLPLLAMAGAQRVELREELFAGPPDTEALTAAIQLQGLECVFSSPLELWREDGQLNPELEPTLRRAEACGAGWLKVSLGLLPEQPDLAALGRRLARHGLQLLVENDQTPQGGRIEVLERFFRLAERQQLDLAMTFDIGNWRWQEQAADEAALRLGRYVGYVHCKAVIRNRDGKLVAVPPSAADLQYWQRLLQHFPEGVARAIEYPLQGDDLLSLSRRHIAALARLGQPQEERQHG” it is “not failed”; for “MFLRIANKILKRLAGVQVIPVNKKRLSVLDNKHLHIASNSILLEGTSLDFRQEISSSDTYVSIGGYCLIKAIFTFETTTGLITIGNNVHIGNAHFICRSAITIHDDVTMAWGITLYDHNSHSIHWEERKDDNKTCYEDFVQHHGNNIVNKNWINVLSRPIVIESKAWIGFNVTILKGVTIGEGAVIGACSVVTKDVPAWTVVAGNPAAVVKHLQKPE” it is “failed”.

In the case of “MVSSVLEVSHVFCCPNRVRGALSWNTGPGGLLAFGTSCSVVLYDPQKKVVITNLNGHTARVNCLQWIRTEDGSPSNELVSGGSENRVIHWELENNQVLKSVRLQGHEGPVCAVHAIYQSGPSEGEQHALIASAASDSTVRIWSKKGSEVKYLQTLSFRDGFVLSVCLAILPGTNVPVLACGDDDCRIHLYIQQDDQFQKALSLCGHEDWIRGVEWATFGRDLFLASCSQDCLIRIWRLYMKPASFETKDGSLRLKENTFTIKDGGVRTTVAVTLETVLAGHENWVNAVHWQPSFYKDGVLQQPVRLLSASMDKTMILWAPDEESGVWLEQVRVGEVGGNTLGFYDCQFGENGTMIIAHAFHGALHLWKQSTVNPRQWAPEIVISGHFDGVQDLMWDPEGEFIITTSTDQTTRLFAPWKKKDQKDRSQVTWHEIARPQIHGYNIKCLAMIDRFQFVSGADEKVLRVFSAPRNFVENFSVISRQSLSHMLCDDQDLPEGATVPALGLSNKALFQGDIASQPFEEDELISPAFGSPQVTFQPAVLNEPPTEDHLLQNTLWPEIQKLYGHGYEIVCVACNNSKTLLASACKASQKEHAAIILWSTASWKQVQSLAFHTLTVTQMTFSPDDKFLLAVSRDRTWSLWKRQDATSSEFDPFFSLFAFTNKITSVHSRIIWSCDWSPDNKYFFTGSRDKKVVVWGECKSSHNPMEHPIRPCSSILDVGSSVTAVSVCPVLNPAQRYIVAIGLESGKICIYSWNKTNQEINDWTSCVETNPSQSHSLGIRRLCWKSCSDDDDDDDDDDTEQSEEGPEWLHFASCGEDHTVKIYRVNRRAL”, the protein production entry is “failed”.

Consider “MSASPQAPTPPDRSSPSVSSNLGAEGAGGRRLCGSVVLSAGKILSVDKTLWQALGLSAESLSGLPFLSFLEDPSREVLAARLRLAGPPWDLRTALRVDGRAIPVVLRGDGAADRTTDTPLQVILITLAPQEGEVEPVSQSALFDHIPLGVMLSDGLGRIAYANPAFLAEDIAAVRALLGATPQALATGYLHEGLARTLWEDLLCGRVWRNDVDLPTADGQRTHSRLTIIPLRRDDGAVDRLMTVIEPRSPATDSQAWQQVNHDTLTGLPNRVLFQDRLLTALASARRRNDQLAVLFVDLDHFKTVNDSLGHSFGDQLLQQVATRLSQCLRDSDTLARMGGDEFTIALTGDGHQRDYAMIANRILETLRRPFTLEGGHEVLIGSSIGITLFPNDAEDVDTLLRNADTAMYRAKASGRNAFQFFTEEMNREIQSHLDLENALRRAVRAMDLTIHYQPVVDSATLAVVSAEALVRWPLADKGFIPPSRFIPVAEELGLIDEIGGWVLWNACTQAKVWQAQGAKAFRVSVNVSWRQLRNPDFALRVREALEGTGLGAAFLELEITEGMVLRDPQGIAPALMALSEMGVALAIDNFGSGHSSIKCLRQFPFSILKLDRSCVADVLTSHEDAVLVETAAIMARRLGLTVVAEGVETHAQLEFLREHYCDLIQGYLFGRPLPPEDFARML”, for which the protein production result was “failed”. On to “SNGTPLMTPTELIERQASGEQLQIIDTRSKKQYEISCVKGAIHIPLAEIRDRVAELDKNVTTITYCNKGVTGNAAQNILLNEGFKEVYNLSGGNKNY”, for which the protein production entry is reported as “failed”. Consider “MAANNRRMSGKKGAQVGSGGKRRRGLEGKGPTPPAEMRKGHAKQRAANAKARRTTGGRPQQRRGGGRSTSELVVGRNPVYEALREGVPASTLYVQQFIDNDERVREALQLAAERGGINLMEAPRPELDRMTNGLNHQGLVLQVPPYEYAHPEDLVAAAHDEGIDPLIVALDGVTDPRNLGAVVRSVSAFGGHGVVVPERRAAGMTAGAWKTSAGTAARTPVARATNLTRALEQYQKAGITVVGLAADGEAELGDLAALDGPVVIVVGSEGKGLSRLVGETCDFRVRIPMPGGAESLNAGVAAGIVLYEAARRRS”, for which the protein production result is reported as “failed”. Take “MNIEQQLYDVVKQLIEQRYPNDWGGAAAIRVEDGTIYTSVAPDVINASTELCMETGAILEAHKFQKKVTHSICLARENEHSELKVLSPCGVCQERLFYWGPEVQCAITNAKQDIIFKPLKELQPYHWTEAYHDEMVKEWSTR”: the protein production entry is on record as “not failed”. With “MRILAIVKRIVNQFRRDKRTLALMFLAPLLLITLLTYLFEGDTVKPVVGVNGLSSSMVKELKENDLTIKTYPDNTNATAKIKDADLDAFFQQDGEKIKVTYENSEPSLSKEIGLKLQKALMAEQQVQVKKQAKTTGEALAKAGIDPNSLPALTNSPEKLTISTDYVYGDKDTSFFDTISPIFIGFFVFFFVFLIAGISFLRERTTGTLERLMATPIKRIELELGYLIGFGIFALLQSILVAVFSIQVLGMMQNGSLFYVLLITLTLGMVSLALGILLSTFANNEFQIVQFIPIVIVPQVLFCGIFPLDGMADWLVWIAHIMPLYYGANALTSIMVKGEGFASFANDFYILLGFVIIFVVLNIFALKKYRKV”, the protein production entry is given as “failed”.
